From US20140162285A1, “Methods of Modulating Vesicular Trafficking” (The General Hospital Corporation, priority 2009, published 2014)

Target: T1, ARNO Sec7-domain (Homo sapiens, UniProt Q99418)
T1 construct: iii) 61-252aa, Sec7 domain; made in house; host or cells: E. coli BL21(DE3)
T1 sequence (Q99418 61-252): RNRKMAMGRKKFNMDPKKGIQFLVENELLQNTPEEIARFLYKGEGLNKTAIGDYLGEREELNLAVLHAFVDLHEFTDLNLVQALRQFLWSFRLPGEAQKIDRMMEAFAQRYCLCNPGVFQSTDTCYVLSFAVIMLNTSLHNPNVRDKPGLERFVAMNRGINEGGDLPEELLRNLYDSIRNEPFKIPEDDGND
Test: GST pull-down of in vitro translated a2N with ARNO Sec7-domain
Format: binding
Settings: Western blot anti-a2N
Procedure: The purified recombinant GST-ARNO(wt) and GST-tagged ARNO domain constructs ([…]) were incubated with 10 μl of in vitro translated 6His-a2N recombinant protein at 4° C. for 2 hours in 500 μl of binding buffer (10 mM HEPES, 1 mM EDTA, 1 mM DTT, 100 mM NaCl, 10% glycerol, 0.1% NP-40) with gentle rotation. Then the interacting recombinant proteins were immobilized on glutathione beads by incubation with 50 μl of 50% glutathione Sepharose 4B slurry for 2 hours at 4° C. The beads were collected by centrifugation and washed 5 times with 500 μl ice-cold binding buffer. Interacting proteins were eluted by boiling in SDS-PAGE sample buffer for 10 min at 95° C., resolved by SDS-PAGE and analyzed by Western blotting using polyclonal anti-a2N antibodies. […]
To examine the ability of these well-defined and functionally distinct domains of ARNO to interact with a2N1-402, full-length ARNO(wt) and its four domains were cloned separately for bacterial expression of recombinant proteins (FIG. 3). […] Interacting proteins were detected by western blot analysis with a2-specific antibodies as described above.

B1: a2N: recombinant N-terminal cytosolic tail, amino acid residues 1-402 of mouse V-ATPase a2-subunit (protein)
chain: MGSLFRSESMCLAQLFLQSGTAYECLSALGEKGLVQFRDLNQNVSSFQRKFVGEVKRCEELERILVYLVQEITRADIPLPEGEASPPAPPLKHVLEMQEQLQKLEVELREVTKNKEKLRKNLLELVEYTHMLRVTKTFLKRNVEFEPTYEEFPALENDSLLDYSCMQRLGAKLGFVSGLIQQGRVEAFERMLWRACKGYTIVTYAELDECLEDPETGEVIKWYVFLISFWGEQIGHKVKKICDCYHCHIYPYPNTAEERREIQEGLNTRIQDLYTVLHKTEDYLRQVLCKAAESVCSRVVQVRKMKAIYHMLNMCSFDVTNKCLIAEVWCPEVDLPGLRRALEEGSRESGATIPSFMNTIPTKETPPTLIRTNKFTEGFQNIVDAYGVGSYREVNPALFTII
modifications: left off: small tags and cut ends
notes: recombinant N-terminal cytosolic tail, amino acid residues 1-402 of mouse V-ATPase a2-subunit
interaction of a2N with ARNO Sec7-domain: interacts strongly
